Patent US6406872

B1: UNC-49C GABA receptor subunit (receptor)
chain: QDEDSHINTQLLSSVLDRLTNRTTYDKRLRPRYGEKPVDVGITIHVSSISAVSEVDMDFTLDFYMRQTWQDPRLAFGSLDLGLSKEIDSLTVGVDYLDRLWKPDTFFPNEKKSFFHLATTHNSFLRIEGDGTVYTSQRLTVTATCPMDLKLFPMDSQHCKLEIESYAYSTAEIEYKWCTSKEPNCSTAVKADANIELSSYKFTKICQKRTLASTSSGTYSRLRVSFIFDRDSGFYFLQIFFPASLVVVLSWISFWINRDSAPSRTLIGTMTVLTETHLMTGTNRRLPPVAYVKAVDVFLGFCYLLVILALIEYACVAYSKKKNEDRRRREKKTEHKPAPPTPDILHDVRLAECTCNAAPTSIIAVIKQSNRFCVSHSHIDIVSRAAFPLVFILFNTLFWLILLYKSKRLPYISEHEGDRCDAPDLH
B2: UNC-49B GABA receptor subunit (UNC-49B.1 isoform) (receptor)
chain: QDEDSHINTQLLSSVLDRLTNRTTYDKRLRPRYGEKPVDVGITIHVSSISAVSEVDMDFTLDFYMRQTWQDPRLAFGSLDLGLSKEIDSLTVGVDYLDRLWKPDTFFPNEKKSFFHLATTHNSFLRIEGDGTVYTSQRLTVTATCPMDLKLFPMDSQHCKLEIESYGYETKDIDYYWGKKRTDLEITAVKFDTFQLPQFQPTLYFVNTTKAETSSGKYVRLALEVILVRNMGFYTMNIVIPSILIVTISWVSFWLNREASPARVGLGVTTVLTMTTLITTTNNSMPKVSYVKGLDVFLNFCFVMVFASLLEYAIVSYMNKRLVLRREKRRKAAEQQQRNEMPMFNASPKAANNNADLYFAGHNSSMNPLMEIPENCDCRTIPMMQHPRLVTDGAHTLWPAPFARPKKASKTCCQRWTPAKIDKLSRYGFPLSFSIFNIVYWLYMKYLSLNSSDKIQENDKWQQIH

Experiments:
[1] = target: B2; assay: cell-based or functional assay
[2] = target: the molecule itself; assay: cell-based or functional assay

Row | Binder | EC50 (µM) of GABA, two-electrode voltage clamp, Xenopus oocytes co-injected with UNC-49B and UNC-49C RNA [1] [µM] | EC50 (µM) of GABA, two-electrode voltage clamp, Xenopus oocytes injected with UNC-49B.1 mRNA alone [2] [µM]
1 | B1 | 108 | –
2 | B2 | – | 43.7
